The nature of this data set: yeast display, Sf9 membrane polyspecificity reagent, FACS + sequencing; frameworks hold sequencing errors. In outline: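 Galactose-induced (36–48 hours) yeast carrying a synthetic nanobody display library were exposed to 10% biotinylated, detergent-solubilized Sf9 membrane reagent at 4 °C for 1 hour. FACS followed streptavidin microbead enrichment, using low and high (top ~1%) gates for expression (anti-HA) and reagent binding (streptavidin). Colony PCR, MiSeq 2 × 250 sequencing and CDR-length filtering followed. Labels for polyreactivity reflect the gate of origin.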
Take “QVKLVESGGGLVQAGGSLRLSCAASGSTFASYAMGWYRQDPGKQRELVAAITRSGGSSTYADSVKGRFTISRDNAKITVYLQMNSLKPEDTAVYYCAARYLYSYYVSYDYWGQGTQLTVSS”: the “polyreactivity (PSR sort gate)” value is reported as “high polyreactivity”. As for “QVKLVESGGGLVQAGGSLRLSCAASGSTFFIYTKGLYRQAPGKEREFVAAISWTGGRTYYADSVKGRFTISRDNAKNTVYLQMNSLKPEDTAVYYCAARYKYSSYDYWGQGTQVTVSS”, the entry is “high polyreactivity”; as for “QVKLVESGGGLVQAGGSLRLSCAASGSTFPTNAMVCYRQAPGKERELVAGITEGGSSTYYADSVKGRFTISRDNAKNTVYLQMNSLKPEVTAVYYCAADVLWYGPFWVRQDDYWGQGTQVTVSS”, “high polyreactivity”; as for “QVKLVESGGGLVQAGGSLRLSCAASGSTFWIYAMAWYRQAPGKERELVAAISWRGGRTYYADSVKGRFTISRDNAKNTVYLQMNSLKPEDSAVYYCYAQKRDGSMGYWGQGTQVTVSS”, “high polyreactivity”.

Turning to “QVKLVESGGGLVQAGGSLRLSCAASGSTFYKYTMGWNRQEPGKGRELVAAINWSGSTYYADSVKGRFTISRDNAKNTVYLQMNSLKTEDTAVYYCAATYIYRYDYWGQGTQVTVSS”, the “polyreactivity (PSR sort gate)” value is “high polyreactivity”.

In the case of “QVKLVESGGGLVQAGGSLRLSCADSGRIFYIYAMGWYRQSPGKERELVAAISSGGTTNYADSVKGRLTISRDNAKNTVYLQMNSLKPEDTAVYYCACYWRSRNRFYWGQGTQVTVSS”, the “polyreactivity (PSR sort gate)” value is recorded as “high polyreactivity”.

As to “QVKLVESGGGLVQAGGSLRLSCGASGSIFRWYALGWYRQAPGKERELVAAIDYSGGSTYYADSVKGRFTISRDNAKNTVYLQMNSLKPEDTAVYYCAATAFYGGFLRYDYWGQGTQVTVSS”, the “polyreactivity (PSR sort gate)” value is “low polyreactivity”. “QVKLVESGGGLVQAGGSLRLSCGASVGTFYRYSMVWFRQAPGKERELVAVISKRGGTTYYADSVKRRFTISRDNANNTVNLQMNSLKPEDTAVYYCADRPYYWGQGTQVTVSS”: the “polyreactivity (PSR sort gate)” value is “high polyreactivity”. As to “QVKLVESGGGLVQAGGSLRLSCPASGFIFYDYVMGWYRQAPGKERELVAAISSNGGSTYYADSVKGRFSISRDNAKYTVYLQMNSLKPEDTAVYYCAAEGKSYPWPWYFDYWGQGTQVTVSS”, the “polyreactivity (PSR sort gate)” value was “high polyreactivity”. “QVKLVESGGGLVQAGGSLRLSCPASGRIFYTNARGWSRQQPGQESEFVAAISYSGGTTYYADSVKGRFTISRDNAKNNVYLQMNSLKPEDTAVYYCARRYRSYYYRSKMDYWGQGTQVTVSS”: the “polyreactivity (PSR sort gate)” value is listed as “high polyreactivity”. The same measure for “QVKLVESGGGLVQAGGSLRLTCAASGSNFDINAMGWYRQAPGKERELVAAISWSGGDTYADSVKGRFTISRDNAKITVYLQMNCLKPEDTAVYYCDTGDPHEEQYYYDYCGQGTQVTVSS”: “low polyreactivity”. As for “QVKLVESGGGLVQAGGSRRLSCAASGLIFYSYAMGWSRQAPGKERELVAAISSRGGSTYYADSVKGRFTISRDNAKNTVYLQMNSLKPDDTAVYYCNAYFLLPHYDYWGQGTQVTVSS”, the entry is “low polyreactivity”; as for “QVKLVESGGGLVQEGASLRLSCAASGRIFGNYAMGWYRQAPGKERELVAAIDLSGDSTYYADSVKGRFTISRDNAKNTVYLQMNSLKPEDTAVYYCAATDWFSEYYWGQGTQVTVSS”, “low polyreactivity”; as for “QVKLVESGGGVVQAGGSLSLSCAASGRIFGGNAMGWYRQAPGKERELVAAISRTGGSTYYADSVKGRFTISRDIAKNTVYLQMNSLKPEDTAVNYCNAVYRYAHPMEYWGQGTQVTVSS”, “high polyreactivity”. As for “QVKLVESGGVLVQAGGSLRITCAGSGRIFSRYVMGWYRQAPGKETEFVAYITWSGSSTFYADSVKGRFTISRDNAKNTGYLQMNSHKPEDSAVYFCAALGLLSPSPWGTHISEYDSWGQGTQVTVSS”, the entry is “low polyreactivity”; as for “QVKLVESGGVLVQAGGSLRLSCADSGRTFYPYAMGWYRQGPGKDRELVAAISRSGGSTYADSVKGRFTISRDNAKYTVYLQMNSLKPEDTAVYYCATRRKTYLSFNYDYWGQGTQVTVSS”, “low polyreactivity”; as for “QVKLVESGVGLVQAGGSLRLSCAASGSTLTRNAMGWYRQAPGKERELVAAITQRGGSTYYADSVKGRFTLSRDNAKNTVYLQMNSLKPEDTAVYYCNVRAFHKQYSEYDYWGQGTQVTVSS”, “high polyreactivity”. Regarding “QVLLQESGGGLVQAGGSLRLGCAASGTISPAYYMGRNHQAPGKEREFVAAITYGTNTYYADSVKGRFTISRDNAKNTVYLQMNSLKPEDTAVYYCSATAGYNGAHDYWGQGTQVTVSS”, the “polyreactivity (PSR sort gate)” value is on record as “low polyreactivity”.

As for “QVLLQESGGGLVQAGGSLRLGCAASGTISPAYYMGRSLQAPGKEREFVAAITYGTNTYYADSVKGRFTISRDNAKNTVYLQMNSLKPEDTAVYYCSATAGYNGAHDYWGQATQVTVSS”, the “polyreactivity (PSR sort gate)” value was “low polyreactivity”.

For the sequence “QVLLQESGGGLVQAGGSLRLGCAASGTISPAYYMGRYHQAPGQEREFVAAITYGTNTYYADSVKGRFTISRDNAKNTVYLQMNSLKPEDTAVYYCSATAGYNGAHDYWGQGTQVTVSS”, the “polyreactivity (PSR sort gate)” value is on record as “low polyreactivity”.

For the sequence “QVLLQESGGGLVQAGGSLRLSCAASGNIFSAGGMGWYRQAPVNERELVAGIGTGTSTNYADRVKGRFTISRDNAKNTVYLQMNSLKPEDTAVDYCAAAYYSGLSHWYWGQGTQVTVSS”, the “polyreactivity (PSR sort gate)” value is reported as “low polyreactivity”.

In the case of “QVLLQESGGGLVQAGGSLRLSCAASGTISTDIRMGWYRLAPGKEREFVASIDGCSTTYYADSVKGRFTISRDNAKNTVYLQMNSLKPEDTAMYYCSAREATEFYLFYWGQGTQVTVSS”, the “polyreactivity (PSR sort gate)” value is recorded as “low polyreactivity”. The same measure for “QVLLQESGGGLVQAGGSLRLSCAASGTISTDIRMGWYRLAPGKEREFVASIDGCSTTYYADSVKGRFTISRDNAKNTVYLQMNSLKPEDTEMYYCAAREATEFYLYYWGQGTQVTVSS”: “low polyreactivity”; for “QVLLVDSGGGLVHAGGIHRLSCHASVGIFSWYDMGLYRQAPGKERELVAAISWSGGSTYYAYSVKGRFTISRDNAKNTVYLQMNSLKPEDTAVYYCAAYTADYYDYWGQGTQVTVSS”: “high polyreactivity”. As for “QVLLVEAGRGLVQAGGSLRLSCAASGSIVVGYAMGCYRQAPGKERELVATISYSGDSTYYADSVKGRFTISRDNAKNTVYLQMNSLNPEDSAVYYCATESNGSPYKGDYWGQGTQVTVSS”, the entry is “low polyreactivity”. For the sequence “QVLLVESGGGLVQAGGSLRISCAASGRISSRNAMGWYRQAPGKERELVAGITSGGSTNYADSLKGRFTISRDNAKNTVYLQMNSLKPEDTAVYYCAKRSRTYRYGYDYWGQGTQVTVSS”, the “polyreactivity (PSR sort gate)” value is “high polyreactivity”.

On to “QVLLVESGGGLVQAGGSLRLICAASGSIFGVYAMGWFRQAAGKDRELVAAISLSGTSTYYADSVKGRFTISRDNAKNTVYLQMNSLKAEDTAVYYCAAPWRLFSLYDYWGQGTQVTVSS”, for which the “polyreactivity (PSR sort gate)” value is “low polyreactivity”. On to “QVLLVESGGGLVQAGGSLRLSCAASGFIFYLNGMGWYRQAPGKERELVAAISGRGGRTYYADSVKGRFTISRDNAKNTVYLQMNSLIPEDTAVYYCAAQYVPSRYGYWGQGTQVTVSS”, for which the “polyreactivity (PSR sort gate)” value is reported as “high polyreactivity”. The same measure for “QVLLVESGGGLVQAGGSLRLSCAASGFTFGTNAMVWYRQAPGKERELVAAISSRGGSTYYADSVKGRFTISRDNAKNTVYLLMNSLNPEDTAVYYCARRVARRQHEYGYWGQGTQVTVSS”: “high polyreactivity”; for “QVLLVESGGGLVQAGGSLRLSCASSGNTFYVNVMGWYRQAPGKEREFVAAISTRGVSTSYADSVKGRYTISRDNAKNTVYLDMNTLKPEDTAVYYCAASFRRPQPKGTTYGYWGQGTQVTVSS”: “high polyreactivity”.

(Values after the nanobody polyreactivity screen of Harvey et al. (2022).)
